Earlier results, collected in paper PMC10611464.
Read-outs that look alike come from different tables or passages of the source. Blank lines part the entries; values can stand above or below the substance they belong to.

Experiments:
PACAP (Homo sapiens) [1] = molecular target: PACAP (Homo sapiens) (UniProt P18509)
VIP (Homo sapiens) [2] = molecular target: VIP (Homo sapiens) (UniProt P01282)
PACAP (Homo sapiens) [3] = molecular target: PACAP (Homo sapiens) (UniProt P18509); remark: listed apart in the source
PACAP (Homo sapiens) [4] = molecular target: PACAP (Homo sapiens) (UniProt P18509); remark: listed apart in the source
VIP (Homo sapiens) [5] = molecular target: VIP (Homo sapiens) (UniProt P01282); remark: listed apart in the source

Chain of UniProt P18509 (P18509 82-129): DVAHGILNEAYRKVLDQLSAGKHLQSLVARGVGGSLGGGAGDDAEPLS
Chain of UniProt P01282 (P01282 125-152): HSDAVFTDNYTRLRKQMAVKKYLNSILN

- Kd (PACAP (Homo sapiens) [1]): 0.5 nM
Substance: PAC1 (from UniProt P41586)

- Kd (VIP (Homo sapiens) [2]): 1 nM
- Kd (PACAP (Homo sapiens) [3]): 1 nM
Substance: VPAC1 (from UniProt P32241)

- Kd (PACAP (Homo sapiens) [4]): 1 nM
- Kd (VIP (Homo sapiens) [5]): 1 nM
Substance: VPAC2 (from UniProt P41587)
